Results published in patent publication US20120269734.

Key:
[1] = test system: kemptide (substrate of PKA), conjugated to the bioluminescent protein Luc8 as in the method of FIG. 21b
[2] = biological target: T1, Luc8 fusion protein (Luc8-PLGVR-6xHis)
T1 chain: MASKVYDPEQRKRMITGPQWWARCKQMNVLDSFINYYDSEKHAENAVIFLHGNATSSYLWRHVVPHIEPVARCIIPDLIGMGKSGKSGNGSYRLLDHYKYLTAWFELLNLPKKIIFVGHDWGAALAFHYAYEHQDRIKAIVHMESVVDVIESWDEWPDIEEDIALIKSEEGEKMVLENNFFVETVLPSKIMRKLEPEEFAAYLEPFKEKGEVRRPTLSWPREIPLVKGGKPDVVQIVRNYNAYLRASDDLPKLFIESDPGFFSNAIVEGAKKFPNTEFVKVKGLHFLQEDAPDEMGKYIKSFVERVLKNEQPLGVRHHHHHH

Molecule: Protein Kinase A (PKA)
- BRET ratio after the PKA phosphorylation (method of FIG. 21b) [1]: The BRET ratio was increased from 0.15 to 0.47 after the PKA phosphorylation of the substrate kemptide
- BRET ratio before the PKA phosphorylation (method of FIG. 21b) [1]: The BRET ratio was increased from 0.15 to 0.47 after the PKA phosphorylation of the substrate kemptide

B1: active human recombinant MMP-2 (CalBiochem) (protein)
chain: YNFFPRKPKWDKNQITYRIIGYTPDLDPETVDDAFARAFQVWSDVTPLRFSRIHDGEADIMINFGRWEHGDGYPFDGKDGLLAHAFAPGTGVGGDSHFDDDELWTLGEGQVVRVKYGNADGEYCKFPFLFNGKEYNSCTDTGRSDGFLWCSTTYNFEKDGKYGFCPHEALFTMGGNAEGQPCKFPFRFQGTSYDSCTTEGRTDGYRWCGTTEDYDRDKKYGFCPETAMSTVGGNSEGAPCVFPFTFLGNKYESCTSAGRSDGKMWCATTANYDDDRKWGFCPDQGYSLFLVAAHEFGHAMGLEHSQDPGALMAPIYTYTKNFRLSQDDIKGIQELYGASPDIDLGTGPTPTLGPVTPEICKQDIVFDGIAQIRGEIFFFKDRFIWRTVTPRDKPMGPLLVATFWPELPEKIDAVYEAPQEEKAVFFAGNEYWIYSASTLERGYPKPLTSLGLPPDVQRVDAAFNWSKNKKTYIFAGDKFWRYNEVKKKMDPGFPKLIADAWNAIPDNLDAVVDLQGGGHSYFFKGAYYLKLENQSLKSVKFGSIKSDWLGC
- BRET ratio after 24 hours at 22° C., MMP-2 at 20 ng/mL (~300 pM) [2]: the BRET ratio decreased by ~20% from 1.6 to 1.3 for a concentration of MMP-2 of 20 ng/mL (~300 pM)
- BRET ratio at the start, MMP-2 at 20 ng/mL (~300 pM) [2]: the BRET ratio decreased by ~20% from 1.6 to 1.3 for a concentration of MMP-2 of 20 ng/mL (~300 pM)
- BRET ratio before the MMP-2 cleavage (t=0); fusion protein 16 µM, MMP-2 10 µg/mL, 22° C. [2]: the BRET ratio was 1.64
- BRET ratio within 30 minutes of incubation with MMP-2 (10 µg/mL) [2]: Within 30 minutes, the BRET ratio dropped to 0.62
- BRET ratio within 2 hours of incubation with MMP-2 (10 µg/mL) [2]: the reaction was nearly complete within 2 hours with a BRET ratio of 0.21
- NuPAGE assay [2]: NuPAGE assay detected a protein product with a smaller size, confirming the hydrolysis by MMP-2
- decrease of the BRET ratio after 24 hours at 22° C. with MMP-2 at 20 ng/mL (~300 pM) [2]: the BRET ratio decreased by ~20% from 1.6 to 1.3 for a concentration of MMP-2 of 20 ng/mL (~300 pM)
- gel electrophoresis (4-12% Bis-Tris denaturing gel, Coomassie) [2]: Gel electrophoresis analysis confirmed the cleavage of the fusion protein by MMP-2
